± gives the standard deviation.
Test: protein stability index of a GFP-peptide fusion (GPS, HEK-293T) (PSI 1-6); higher = more stable
[1] = treatment: DMSO, c terminus: a fixed tail appended
[2] = treatment: MLN4924 1 uM, 8 h, c terminus: a fixed tail appended
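Further: 24-mer peptide tiles fused after GFP, lentivirally expressed, FACS-sorted into six equal bins by GFP/DsRed ratio, decoded by Illumina sequencing, PSI is the read-weighted mean bin number.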

Sequence: GHTPLMEAGSAGHVEVARLLLENG [ANKRD17]
- protein stability index [1]: 4.22 ± 0.24
- protein stability index [2]: 4.17 ± 0.24

Sequence: QPPEESQPPQSQAQVPPAAPHHHH [PLK2]
- protein stability index [1]: 5.41 ± 0.11
- protein stability index [2]: 5.43 ± 0.18

Sequence: QELLKRTIMQAVSQIRLNREHKET [TEKT4]
- protein stability index [1]: 2.63 ± 0.17
- protein stability index [2]: 2.79 ± 0.36

Sequence: SGEFGSVFKCVKRLDGCIYAIKRS [WEE1]
- protein stability index [1]: 2.31 ± 0.58
- protein stability index [2]: 2.65 ± 0.12

Sequence: PVDLWACGVILYILLVGYPPFWDE [CAMK2A]
- protein stability index [1]: 3.08 ± 0.1
- protein stability index [2]: 2.56 ± 0.096

Sequence: KAGIEQEGYWLPGDEISIKKKNTN [ZMYND11]
- protein stability index [1]: 4.5 ± 0.3
- protein stability index [2]: 4.62 ± 0.35

Sequence: GPMRPEQFSDEVEPATPEEGEPAT [GAGE1]
- protein stability index [1]: 5.39 ± 0.2
- protein stability index [2]: 5.266 ± 0.044

Sequence: SVGTYIIDLLTFLTGQKAVKVHGL [GFOD1]
- protein stability index [1]: 3.23 ± 0.42
- protein stability index [2]: 3.32 ± 0.54

Sequence: LHRLFREKSLDQLKSISAEEILTL [PHTF1]
- protein stability index [1]: 2.11 ± 0.45
- protein stability index [2]: 2.25 ± 0.47

Sequence: RELGIRQRDEQLRALQERLGQQQR [FBF1]
- protein stability index [1]: 4.39 ± 0.14
- protein stability index [2]: 4.42 ± 0.14

Sequence: IRLGIEGYPTYKEKVKKRPGGRPE [BTBD10]
- protein stability index [1]: 3.41 ± 0.54
- protein stability index [2]: 3.42 ± 0.41

Sequence: RDRVGHKSIPMRNLRARPAKCLS [SERPINB5]
- protein stability index (treatment: DMSO, c terminus: native): 2.34 ± 0.23
- protein stability index (treatment: MLN4924 1 uM, 8 h, c terminus: native): 2.48 ± 0.24

Sequence: MAETVADTRRLITKPQNLNDAYGP [SNX3]
- protein stability index [1]: 3.95 ± 0.25
- protein stability index [2]: 4.17 ± 0.15

Sequence: QGDLASLRAELQGHHAEKLPAGAG [TNFSF13B]
- protein stability index [1]: 4.72 ± 0.2
- protein stability index [2]: 4.76 ± 0.18

Sequence: PVYRRDCHEEVYAGSHQYPGRGVY [ACBD3]
- protein stability index [1]: 2.89 ± 0.29
- protein stability index [2]: 3.03 ± 0.2

Sequence: VPVSFIFIFTFVKKKKIGFYFEVC [PCDHGA10]
- protein stability index [2]: 1.82 ± 0.39

Sequence: ERLERAVSDRLAPGAPRGNPPKAS [MYCL]
- protein stability index [1]: 4.84 ± 0.44
- protein stability index [2]: 5.23 ± 0.26

Sequence: GYGIYYFIYSTWKGRTIYLEDIYV [SAT2]
- protein stability index [1]: 2.9 ± 0.16
- protein stability index [2]: 2.78 ± 0.43

Sequence: IVRFSGQSRGVPAVSESYSAPGAC [FBXO34]
- protein stability index [1]: 3.15 ± 0.34
- protein stability index [2]: 3.36 ± 0.38

Sequence: PLAQNERCLHMFLQDEIIDKSYTP [SNX3]
- protein stability index [1]: 2.97 ± 0.24
- protein stability index [2]: 3.39 ± 0.22

Sequence: KKIVHYTCFDQRKRANAAFLIGAY [CDC14A]
- protein stability index [1]: 2.37 ± 0.31
- protein stability index [2]: 2.07 ± 0.83

Sequence: QQAGLLVTGEKEEPSRSASEADSE [PPEF2]
- protein stability index [1]: 5.613 ± 0.041
- protein stability index [2]: 5.56 ± 0.16

Sequence: RFYLPLLIHQHEKVIYLDDDVIVQ [GLT8D2]
- protein stability index [1]: 2.32 ± 0.56
- protein stability index [2]: 1.97 ± 0.25

Sequence: AALKQAIKDKEAPLHVAQTRLYLR [TEKT4]
- protein stability index [1]: 3.06 ± 0.15
- protein stability index [2]: 3.07 ± 0.18

Sequence: REHVCRKDQRNPPSLGRVLPDPRE [RBMY1A1]
- protein stability index [1]: 4.69 ± 0.22
- protein stability index [2]: 4.8 ± 0.24

Sequence: EYHQPQAPANVAKIQLRLAGQKRK [LOXL2]
- protein stability index [1]: 4.34 ± 0.43
- protein stability index [2]: 4.54 ± 0.4

Sequence: CSSPGVQACSLPASCCIDPREDGA [TSPAN10]
- protein stability index [1]: 4.687 ± 0.023
- protein stability index [2]: 4.6 ± 0.1

Sequence: GSDAEQSTSGQPYPTSDQEGDPGS [LCOR]
- protein stability index [1]: 5.53 ± 0.35
- protein stability index [2]: 5.59 ± 0.28

Sequence: FPSTSYNARLQAMWGQSLLPPVST [TNXB]
- protein stability index [1]: 2.36 ± 0.32
- protein stability index [2]: 2.51 ± 0.35

Sequence: NGLTLLILGVIGLFTIPLLYRQHQ [RTN2]
- protein stability index [1]: 3.39 ± 0.37
- protein stability index [2]: 2.93 ± 0.71

Sequence: NKKNILLRLLREEEYVAPPRGPLP [TRAF3IP2]
- protein stability index [1]: 2.44 ± 0.25
- protein stability index [2]: 3.06 ± 0.54

Sequence: SIIAVAMQRGARLPAEVAGLSQVL [POMT2]
- protein stability index [1]: 2.35 ± 0.59
- protein stability index [2]: 2.01 ± 0.18

Sequence: VMYTIHMGCHGFRDPFECNMCGYH [IKZF1]
- protein stability index [1]: 2 ± 0.45
- protein stability index [2]: 2.4 ± 1.3

Sequence: LRQEMVNLRATDVRLMRQLLVINE [LURAP1L]
- protein stability index [1]: 2.35 ± 0.081
- protein stability index [2]: 2.48 ± 0.34

From the supplement of paper PMC10567573
